Source: the nanobody polyreactivity screen of Harvey et al. (2022)

Test: yeast display, Sf9 membrane polyspecificity reagent, FACS + sequencing; frameworks hold sequencing errors
In short: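 A nanobody's polyreactivity label depends on the gate it was sorted from. Yeast display cells were stained with 10% biotinylated, detergent-solubilized Sf9 membrane reagent for 1 hour at 4 °C, enriched on streptavidin microbeads and sorted by FACS. The low and high (top ~1%) gates were set on anti-HA fluorescence for expression and streptavidin fluorescence for reagent binding.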

QVQLVESGGGLVQAGGSLRLSCAASGRIFNLNAMVRYRQAPGKERELVAAISKSGTRTYYADSVKGRFTISRDNAKNTVYLQMYSLKPEDTAVYYCGAEALYYDRLGWVYLRYDYWGQGTQVTVSS
polyreactivity (PSR sort gate): high polyreactivity

QVQLVESGGGLVQAGGSLRLSCAASGRIFNLYAMGWYRQAPGKERELVAAISWGGGRTYYADSVKGRFTISRDNAKNTVYLQMNSLKPEDTAVYYCNAVYSPRYYVGGYDYWGQGTQVTVSS
polyreactivity (PSR sort gate): high polyreactivity

QVQLVESGGGLVQAGGSLRLSCAASGRIFNLYDMGWYRQAPGKERELVAAITTGGDTTNYADSVKGRFTISRDNAKNTVYLQMNSLKPEDTAVYYCAADDGWIEPVYGYYEHEYWGQGTQVTVSS
polyreactivity (PSR sort gate): low polyreactivity

QVQLVESGGGLVQAGGSLRLSCAASGRIFNPYAMGWYRQAPGKERELVAAISRGGRTYYADSVKGRFTISRDNAKNTVYLQMNSLKPEDTAVYYCNAGRGLREDDYWGQGTQVTVSS
polyreactivity (PSR sort gate): low polyreactivity

QVQLVESGGGLVQAGGSLRLSCAASGRIFNQYGMGWYRQAPGKERELVASITGSGGTTYYADSVKGRFTISRDNAKNTVYLQMNSLKPEDTAVYYCAAVFYGFVGYYNEDYWGQGTQVTVSS
polyreactivity (PSR sort gate): low polyreactivity

QVQLVESGGGLVQAGGSLRLSCAASGRIFNRNAKGWYRQAPGKERELVAAISSDTSTNYADSVKGRFTISRDNAKNTVYLQMNCLKPEDTAVYYCATKYGTSNWYNTYYYWGQGTQVTVSS
polyreactivity (PSR sort gate): low polyreactivity

QVQLVESGGGLVQAGGSLRLSCAASGRIFNRNAMVWSRQAPGKERELVASISSGGRTNYADSVKGRFTISRDNAKNTVYLQMNSLKPEDTAVYYCAAKSPRILLDYWGQGTQVTVSS
polyreactivity (PSR sort gate): low polyreactivity

QVQLVESGGGLVQAGGSLRLSCAASGRIFNRYAMGWYRQAPGKEREFVAAISVRGGTTYYADSVKGRFTISRDNAKNTVYLQMNSLKPEDTAVYYCAARKISKYDYWGQGTQVTVSS
polyreactivity (PSR sort gate): high polyreactivity

QVQLVESGGGLVQAGGSLRLSCAASGRIFNRYAMGWYSQAPGKERELVARITSSGSTNYADSVKGRFTISRDNAKNTVYLQMNSLKPEDTAVYYCAARKLFIPKYYYWGQGTQVTVSS
polyreactivity (PSR sort gate): high polyreactivity

QVQLVESGGGLVQAGGSLRLSCAASGRIFNSKAKGWYRQEPGKERELVAAISWSGGTTYYADSVKGRFTISRDNAKNTVYLQMNSLKPEDTAVYYCNADLWTSYFGRGDYWGQGTQVTVSS
polyreactivity (PSR sort gate): low polyreactivity

QVQLVESGGGLVQAGGSLRLSCAASGRIFNSNAMGWYRQAPGKERELVAAISSSGTRTYYADSVKGRFTISRDNAKNTVYLQMNSLKPEDTAVYYCNTYYKYAVVPSGGYWGQGTQVTVSS
polyreactivity (PSR sort gate): high polyreactivity

QVQLVESGGGLVQAGGSLRLSCAASGRIFNSNAMGWYRQAPGKERELVAAISWSGGTTYYADSVKGRFTISRDNAKNTVYLQMNSLKPEDTAVYYCNADLWTSYFGRGDYWGQGTQVTVSS
polyreactivity (PSR sort gate): low polyreactivity

QVQLVESGGGLVQAGGSLRLSCAASGRIFNSYAMGWYRQAPGKERELVAAISRNGGITYYADSVKGRFTISRDNAKNTVYLQMNSLKAEATAVYYCNADSSRRRYSSDYWGQGTQVTVSS
polyreactivity (PSR sort gate): high polyreactivity

QVQLVESGGGLVQAGGSLRLSCAASGRIFNVNAMGWYRQAPGKERELVAGITRSGGSTYYADSVKWRFTISRDNAKNTVYLQMNSLNPEDTAVYYCATQATPWYRYYYWGQGTQVTVSS
polyreactivity (PSR sort gate): high polyreactivity

QVQLVESGGGLVQAGGSLRLSCAASGRIFNVYDMGRYRQAPGKERELVAAISSGANTNYADSVKGRFTISRDNAKNTVYLQMNSLKPEDTAVYYCNTEQFYDYDYTFDYWGQGTQVTVSS
polyreactivity (PSR sort gate): low polyreactivity

QVQLVESGGGLVQAGGSLRLSCAASGRIFNWYAMGWYRQEPGKERELVAAISTDGSTYYADSVKGRFTISRDNAKNTVYLQMNSLKPEDTAVYYCAAVPGYTHLWGGPFDYWGQGTQVTVSS
polyreactivity (PSR sort gate): low polyreactivity

QVQLVESGGGLVQAGGSLRLSCAASGRIFNYNAMGWYRQAPGKERELVATITYIGTGTYYADSVKGRFTISRDNAKNTVYLQMNSQKPDDTAVYYCAASYRSRVWWRFDYWGQGSQVTVSS
polyreactivity (PSR sort gate): high polyreactivity

QVQLVESGGGLVQAGGSLRLSCAASGRIFNYYAMGWYRQAPGKERELVAAISKRGGRTYYADSVKGRFTISRDNAKNTVYLQMNSLKPEDTAVYYCNKGFLPSWFTYPYKYYYWGQGTQVTVSS
polyreactivity (PSR sort gate): low polyreactivity

QVQLVESGGGLVQAGGSLRLSCAASGRIFNYYAMGWYRQAPGKERELVARITVGGRTYYADSVKGRFTISRDNAKNTVYLQMNSLKPEDTAVYYCAAVFPYHFGNMDYWGQGTQVTVSS
polyreactivity (PSR sort gate): high polyreactivity

QVQLVESGGGLVQAGGSLRLSCAASGRIFPAYTMGWYRQAPGKERELVAAISRGGRTKYADSVKGRFTISRDNANNTVYLQLNSLKPEDTAVYYCDTVTTYGGVWYDYWGQGTQVTVSS
polyreactivity (PSR sort gate): high polyreactivity

QVQLVESGGGLVQAGGSLRLSCAASGRIFPAYVRVWYRQAPGKERELVAAISDRGGSTYYADSVKGRFTISRDTAKHTVSLQMHRLKPEDTAVYYCAKGGEVSQGYTDDYDYWGQGTQVSVSS
polyreactivity (PSR sort gate): low polyreactivity

QVQLVESGGGLVQAGGSLRLSCAASGRIFPDYDMGWYRQAPGKERELVAAITQRGGSTYADSVKGRFTISRDNAKNTVYLQMNSLKPEDTAVYYCAREYYEAYEYWGQGTQVTVSS
polyreactivity (PSR sort gate): low polyreactivity

QVQLVESGGGLVQAGGSLRLSCAASGRIFPDYVMGWYRQAPGKEREFVAIISYSGVRTYYADSVKGRFTISRDNAKNTVYLQMNSLKPEDTAVYYCAADFKQKGHRTRTTYWGQGTQVTVSS
polyreactivity (PSR sort gate): high polyreactivity

QVQLVESGGGLVQAGGSLRLSCAASGRIFPENAMGWYRQAPGTERELVAAISKNGGRTYYADSVKGRFTISRDNAKNTVYLQMNSLKPEDTAVYYCNRRVQARRYRYDYWGQGTQVTVSS
polyreactivity (PSR sort gate): high polyreactivity

QVQLVESGGGLVQAGGSLRLSCAASGRIFPFNAMGCYRQAPGKEREFVAAIRLSGTRTYYADSVKGRFTISRDNAKNTVYLQINSLKPDDTAVYYCAAKYSGHYYNYDYWGQGTQVTVSS
polyreactivity (PSR sort gate): high polyreactivity

QVQLVESGGGLVQAGGSLRLSCAASGRIFPFYTMGWYRQAPGKERELVAAIRNAGSTKYADSVKGRFTISRDNAKNTVYLQMNSLKPEDTAVYYCNADLTRYRRYYWGQGTQVTVSS
polyreactivity (PSR sort gate): low polyreactivity

QVQLVESGGGLVQAGGSLRLSCAASGRIFPGNALGWYIKAPGKEREFVASINWSVGSTFYADSVKGRFTISRDNAKHTVYLQMNSLKPEDTAVYYCAARTFGYYRSRSFNYWGQGTQVTVSS
polyreactivity (PSR sort gate): high polyreactivity

QVQLVESGGGLVQAGGSLRLSCAASGRIFPGNAMGWYRQAPGKERELVATITESDSSTYYADSVKGRFTISRDNAKNTVYLQMNSLKPDDTAVYYFAAGPSVYWRYDYWGQGTQVTVSS
polyreactivity (PSR sort gate): low polyreactivity

QVQLVESGGGLVQAGGSLRLSCAASGRIFPGYAMGWYRQAPGKERELVAGISNDASTNYADSVKGRFTISRDNAKNTVYLQMNSLKPEDTAVYYCAAEISYLSVPRYDDWGQGTQVTVSS
polyreactivity (PSR sort gate): low polyreactivity

QVQLVESGGGLVQAGGSLRLSCAASGRIFPGYAMGWYRQAPGKERELVASISRTGRTNYADSVKGRFTISRDNAKNTVYLQMNSLKPEDTAVYYCAAEYYHSSYGYGYWGQGTQVTVSS
polyreactivity (PSR sort gate): low polyreactivity

QVQLVESGGGLVQAGGSLRLSCAASGRIFPKYAMGWYRQAPGKERELVATINSGTRTYADSVKGRFTISRDNAKNTVYLEMNSLKPEDTAVYYCARRGYYYDYWGQGTQVTVSS
polyreactivity (PSR sort gate): high polyreactivity

QVQLVESGGGLVQAGGSLRLSCAASGRIFPLYAMGWYRPAPGKERELVADISVTGTSTYYADSVKGRFTISRDNAKNTVYLQMNSLKPEDTAVYYCAADLWAYGPLWRWSRADYDYWGQGTQVTVSS
polyreactivity (PSR sort gate): low polyreactivity

QVQLVESGGGLVQAGGSLRLSCAASGRIFPLYAMGWYRQAPGKERELVAAITSSGGSTYYADSVKGRFTISRDNAKNTVYLQMNSLKPEDTAVYYCAADYSVYWLDYGYWGQGTQVTVSS
polyreactivity (PSR sort gate): low polyreactivity

QVQLVESGGGLVQAGGSLRLSCAASGRIFPLYAMGWYRQAPGKERELVAAITSSGGSTYYADSVKGRFTISRDNAKNTVYLQMNSLKPEDTAVYYCADEGYYSNYHYWGQGTQVTVSS
polyreactivity (PSR sort gate): low polyreactivity

QVQLVESGGGLVQAGGSLRLSCAASGRIFPRYAMGWYRQAPGKERELVAAISWSGGRTYYADSVKGRFTISRDNAKNTVYLQMNSLKPEDTAVYYCAKYVGWYGSPGYDYWGQGTHVTVSS
polyreactivity (PSR sort gate): low polyreactivity

QVQLVESGGGLVQAGGSLRLSCAASGRIFPSYAMGWYRHAPGKERELVAAITSSDSTYNADSVKGRFTISRDNAKNTVYFQMNSLKPEDTAVYYCAAAYSYSGWWWFDYWGQGTQVTVSS
polyreactivity (PSR sort gate): high polyreactivity

QVQLVESGGGLVQAGGSLRLSCAASGRIFPSYAMGWYRQAPGKERELVAAISYSGASTYYADSVKGRFTISRDYAKNTVSLQMNSLKPEDTAVYYCNQLVEEDYWGQGTQVTVSS
polyreactivity (PSR sort gate): low polyreactivity

QVQLVESGGGLVQAGGSLRLSCAASGRIFPTNAMGWYRQAPGKERELVASITRSGSTYYADSVKGRFTISRDNAKNTVYLQMNSLKPEDTAVYYCAADRSAVQFSAFLEYDYWGQGTQVTVSS
polyreactivity (PSR sort gate): low polyreactivity

QVQLVESGGGLVQAGGSLRLSCAASGRIFPTYAMGWYRQAPGKERELVATITRRGGSTYYADSVKGRFTISRDNAKNTVYLQMNSLKPEDTAVYYCAARLWGTIRYDYWGQGTQVTVSS
polyreactivity (PSR sort gate): high polyreactivity

QVQLVESGGGLVQAGGSLRLSCAASGRIFPTYTMGWYRQAPGKERELVAAINRGGGSTYYADSVKGRFTISRDNAKNTVYLQMNSLKPEDTAVYYCNARTYYRYYGYDYWGQGTQVTVSS
polyreactivity (PSR sort gate): low polyreactivity

QVQLVESGGGLVQAGGSLRLSCAASGRIFPVNAMGWYRQATGKERELVARISWRGGTYYADSVKGRFTISRDNAKNTVYLQMNSLKPEDTAVYYCAATLPSTSYWYQYGYWGQGTQVTVSS
polyreactivity (PSR sort gate): high polyreactivity

QVQLVESGGGLVQAGGSLRLSCAASGRIFPVYAMGWYRQAPGKERELVAAIRRTGGSTYYADSVKGRFTISRDNAKNTVYLQLNRLKPEDTAVYYCSVSSQPPLSRYGRFGVGYWGQGTQVTVSS
polyreactivity (PSR sort gate): high polyreactivity

QVQLVESGGGLVQAGGSLRLSCAASGRIFPVYTMGWYRQAPGKERELVAAISGNGASTYYADSVKGRFTISRDNAKNTVYFHMNRLKPEYTAVYYCAAYFYYWGSTFVRYEYWGQGTQVTVSS
polyreactivity (PSR sort gate): high polyreactivity
